The record followed here is the supplement of paper PMC10567573.

± gives the standard deviation.

The data set is described as follows: protein stability index of a GFP-peptide fusion (GPS, HEK-293T) (PSI 1-6); higher = more stable. To be noted: c terminus: a fixed tail appended.
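Note: 24-mer peptide tiles fused after GFP, lentivirally expressed, FACS-sorted into six equal bins by GFP/DsRed ratio, decoded by Illumina sequencing, PSI is the read-weighted mean bin number.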

Regarding GLAANGALQRLDLRNNQISHKGAE [LRRC45], the protein stability index reads like this: (treatment: DMSO) 4.23 ± 0.4; (treatment: MLN4924 1 uM, 8 h) 4.57 ± 0.18.
With GLWGTTLTENTAENRELYIKTTLR [PKD2L1], the protein stability index is, setting by setting: (treatment: DMSO) 3.19 ± 0.15; (treatment: MLN4924 1 uM, 8 h) 3.2 ± 0.17.
Regarding GMNGQMLCNLGKERFLELAPDFVG [ETS2], the protein stability index reads like this: (treatment: DMSO) 2.89 ± 0.32; (treatment: MLN4924 1 uM, 8 h) 2.91 ± 0.21.
Consider GMRRKSLLTRKVICKSDAPTGDVL [GOLPH3], for which the protein stability index (treatment: DMSO) was 3.51 ± 0.18 and the protein stability index (treatment: MLN4924 1 uM, 8 h) was 3.53 ± 0.52.
In the case of GNEKSIIDCKFNAESQGCNHEEDA [LOXL2], the protein stability index (treatment: DMSO) was found to be 5.65 ± 0.23 and the protein stability index (treatment: MLN4924 1 uM, 8 h) turned out to be 5.57 ± 0.47.
For GPDHRLRLWRLFQTLDVNRDGGLC [SLC25A25] the same measures were 2.29 ± 0.11 and 2.23 ± 0.22.
For GPMMKLKRHFVAQKYKKQIDHMYH [ACSBG2] the same measures were 2.1 ± 0.14 and 2.42 ± 0.37.
GPPHARISQHGDPLLSNTFTETNN [EMID1]: the protein stability index was 4.31 ± 0.13 (treatment: DMSO) and 4.748 ± 0.028 (treatment: MLN4924 1 uM, 8 h).
In the case of GQPAPVSMVPPSPAMAASKALGSD [SNAP91], the protein stability index came out at 5.02 ± 0.32 (treatment: DMSO) and 5.01 ± 0.18 (treatment: MLN4924 1 uM, 8 h).
With GQQSDTAQLELYQLQVESNSSQLL [SCARA5], the protein stability index is 4.12 ± 0.13 (treatment: DMSO) and 4.16 ± 0.15 (treatment: MLN4924 1 uM, 8 h).
Take GRGNFPTLEITLKDIVQTVRSRLE [TENT5C]: the protein stability index by setting is: (treatment: DMSO) 2.65 ± 0.36; (treatment: MLN4924 1 uM, 8 h) 2.31 ± 0.2.
Consider GRLIQLSRDGATGHVLLTDSEFSM [PPFIA4], for which the protein stability index was found to be 2.24 ± 0.22 (treatment: DMSO) and 2.17 ± 0.46 (treatment: MLN4924 1 uM, 8 h).
For GRSSLTACSLPLCACLLGQKMLRH [PXN], the protein stability index stood at 2.32 ± 0.28 (treatment: DMSO) and 2.19 ± 0.16 (treatment: MLN4924 1 uM, 8 h).
For GRTPLIKLSPKKTWEGFIGGFFAT [CDS2] the same measures were 1.91 ± 0.24 and 2.09 ± 0.55.
Turning to GSAPFLFLSLACARGSIVATYIFI [SPNS1], the protein stability index by setting is: (treatment: DMSO) 3.15 ± 0.53; (treatment: MLN4924 1 uM, 8 h) 2.9 ± 0.46.
Take GSAYLFVESSLDKVVLSDAYAHPQ [TRADD]: the protein stability index by setting is: (treatment: DMSO) 2.22 ± 0.35; (treatment: MLN4924 1 uM, 8 h) 2.37 ± 0.54.
GSFNGSEKETMQFLNDRLANYLEK [KRT36]: the protein stability index was 3.38 ± 0.28 (treatment: DMSO) and 3.58 ± 0.3 (treatment: MLN4924 1 uM, 8 h).
In the case of GSKQYSAAIAFTLALFSHLVNHVN [SMG5], the protein stability index stood at 3.39 ± 0.34 (treatment: DMSO) and 3.14 ± 0.43 (treatment: MLN4924 1 uM, 8 h).
Consider GSYTVQSELGDYDPDECGSDYISE [EPB41L3], for which the protein stability index by setting is: (treatment: DMSO) 4.83 ± 0.48; (treatment: MLN4924 1 uM, 8 h) 5.2 ± 0.22.
As to GTDLPLSEIPRGVRVALDYEAGQV [TRIM15], the protein stability index amounted to 4.33 ± 0.25 (treatment: DMSO) and 4.46 ± 0.22 (treatment: MLN4924 1 uM, 8 h).
In the case of GTDVTRCICGFTHDDGYMICCDKC [KMT2E], the protein stability index by setting is: (treatment: DMSO) 5 ± 0.2; (treatment: MLN4924 1 uM, 8 h) 5.07 ± 0.12.
Take GTGRSAKEQVLRKGTENLQRAQAE [FCHSD1]: the protein stability index is, setting by setting: (treatment: DMSO) 5.09 ± 0.19; (treatment: MLN4924 1 uM, 8 h) 5.02 ± 0.4.
For GTIFIRNVLLFKKQNPGKFCLLSC [RETREG3] the same measures were 2.7 ± 0.6 and 2.89 ± 0.34.
GTLDCISMALTCTFNRWGTLLAVG [RBBP5] showed a protein stability index (treatment: DMSO) of 3.2 ± 0.3 and a protein stability index (treatment: MLN4924 1 uM, 8 h) of 3.24 ± 0.59.
With GVDWEHIRERPAAIPIEIKSIDDT [STK38L], the protein stability index is, setting by setting: (treatment: DMSO) 4.68 ± 0.25; (treatment: MLN4924 1 uM, 8 h) 4.99 ± 0.27.
Take GWPHEDAAQFTDFLIPMLEMVPEK [SRPK2]: the protein stability index amounted to 3.83 ± 0.26 (treatment: DMSO) and 4.01 ± 0.1 (treatment: MLN4924 1 uM, 8 h).
For the sequence GYSIKVFDFERSGLQHAPEPDAAD [SMAD6], the protein stability index reads like this: (treatment: DMSO) 4.26 ± 0.37; (treatment: MLN4924 1 uM, 8 h) 4 ± 0.17.
For HARLSDIWAKTPPITRKAAQLYTL [DHCR7] the same measures were 2.29 ± 0.22 and 2.3 ± 0.29.
For HASKCEFLANLHITALLNVSRRTS [DUSP5] the same measures were 2.2 ± 0.2 and 2.33 ± 0.22.
For HDQCKCENLIMFQNLANEEVRKLT [MATN2], the protein stability index amounted to 3.13 ± 0.25 (treatment: DMSO) and 3.58 ± 0.28 (treatment: MLN4924 1 uM, 8 h).
HEEEVKGLQAQIASSGLTVEVDAP [KRT18]: the protein stability index runs as follows: (treatment: DMSO) 5.51 ± 0.23; (treatment: MLN4924 1 uM, 8 h) 5.45 ± 0.27.
Regarding HEMVAHRHRQEVLCKEMVPLAEQT [ZSCAN9], the protein stability index (treatment: DMSO) was 4.42 ± 0.2 and the protein stability index (treatment: MLN4924 1 uM, 8 h) is 4.41 ± 0.19.
In the case of HGAVTVGGTSVGSLGVPGSVGGVP [ZBTB22], the protein stability index came out at 4.02 ± 0.61 (treatment: DMSO) and 4.06 ± 0.37 (treatment: MLN4924 1 uM, 8 h).
In the case of HGNLSEEAAKQMRSRGKVLKTKDG [CPOX], the protein stability index is 5.22 ± 0.2 (treatment: DMSO) and 5.41 ± 0.2 (treatment: MLN4924 1 uM, 8 h).
HGPDLYPKFKKWCDDYFFIAHRGE [CPOX]: the protein stability index turned out to be 2 ± 0.15 (treatment: DMSO) and 2.1 ± 0.27 (treatment: MLN4924 1 uM, 8 h).
Consider HGSGSSLVVIQQPSLDSRQRLDYE [SPRY1], for which the protein stability index reads like this: (treatment: DMSO) 4.12 ± 0.28; (treatment: MLN4924 1 uM, 8 h) 3.99 ± 0.31.
For HHKTYDPTYSDFCQFRPPVRVNDG [VDR], the protein stability index reads like this: (treatment: DMSO) 3.38 ± 0.29; (treatment: MLN4924 1 uM, 8 h) 3.28 ± 0.16.
In turn, HIDPEIQDGSPTTSRRPSGTGTGP [PDLIM4] yielded a protein stability index (treatment: DMSO) of 5.26 ± 0.26 and a protein stability index (treatment: MLN4924 1 uM, 8 h) of 5.42 ± 0.26.
Regarding HIIHVWEETGSRFHNCLIQLYCEK [VPS39], the protein stability index amounted to 2.44 ± 0.4 (treatment: DMSO) and 2.37 ± 0.36 (treatment: MLN4924 1 uM, 8 h).
As for HNYKEMRQLMKVVNEMCPNITRIY [CPXM2], the protein stability index by setting is: (treatment: DMSO) 2.11 ± 0.37; (treatment: MLN4924 1 uM, 8 h) 2.17 ± 0.31.
For the sequence HPPSHWPLIKATVGLIRNLALCPA [CTNNB1], the protein stability index by setting is: (treatment: DMSO) 2.65 ± 0.53; (treatment: MLN4924 1 uM, 8 h) 2.81 ± 0.88.
In the case of HPVPLSFEPVKSFFKGLVEAVEST [TRIM14], the protein stability index (treatment: DMSO) is 2.6 ± 0.41 and the protein stability index (treatment: MLN4924 1 uM, 8 h) worked out at 2.26 ± 0.42.
For HPVTIGGKIVGSLCAIAGVLTIAL [KCNA3] the same measures were 2.6 ± 0.42 and 2.05 ± 0.28.
For HQLLGLFPSTSYNARLQAMWGQSL [TNXB] the same measures were 2.11 ± 0.35 and 2.08 ± 0.23.
The sequence HSYNVTQRRPRVLSCLHSVCEQCL [RNF208] came in with a protein stability index (treatment: DMSO) of 2.87 ± 0.17 and a protein stability index (treatment: MLN4924 1 uM, 8 h) of 3.16 ± 0.33.
For HTETGEEVLRMCVAVKKKLQLYFW [VPS39], the protein stability index reads like this: (treatment: DMSO) 2.8 ± 0.85; (treatment: MLN4924 1 uM, 8 h) 2.82 ± 0.33.
HTVGVLFNNGAHMSLLPDKKTVHY [PLK2]: the protein stability index reads like this: (treatment: DMSO) 2.65 ± 0.33; (treatment: MLN4924 1 uM, 8 h) 2.66 ± 0.22.
As to HVFSELWDLSEAWMQANYDPLSDS [ELOA2], the protein stability index amounted to 2.6 ± 0.32 (treatment: DMSO) and 2.63 ± 0.31 (treatment: MLN4924 1 uM, 8 h).
For IALFTARLHHPHKSVQHVVLQALF [PTPN9], the protein stability index worked out at 2.59 ± 0.54 (treatment: DMSO) and 3.13 ± 0.72 (treatment: MLN4924 1 uM, 8 h).
As for IATLRVALPSVMRFCCCVAVIYLG [MCOLN1], the protein stability index (treatment: DMSO) was 3.29 ± 0.55 and the protein stability index (treatment: MLN4924 1 uM, 8 h) came out at 3.15 ± 0.21.
Consider ICTNLCEALQNFFSLACSLMGPSR [M1AP], for which the protein stability index worked out at 2.33 ± 0.28 (treatment: DMSO) and 2.26 ± 0.1 (treatment: MLN4924 1 uM, 8 h).
For IDKVRFLEQQNQVLETKWELLQQL [KRT71] the same measures were 2.74 ± 0.1 and 2.73 ± 0.27.
On to IDREVDLMMRGVKHHNLEGLRKRI [IQUB], for which the protein stability index (treatment: DMSO) is 3.29 ± 0.32 and the protein stability index (treatment: MLN4924 1 uM, 8 h) turned out to be 3.62 ± 0.27.
